The record followed here is doi:10.1101/2025.01.26.634877 (bioRxiv, 2025).

This series deals with the molecule itself. As to the kind of experiment: light scattering.

B1: Recombinant mouse neurofilament light chain protein, wild type (NfL-WT) (natural protein, UniProt P08551 1-543, looked up)
chain: MSSFGYDPYFSTSYKRRYVETPRVHISSVRSGYSTARSAYSSYSAPVSSSLSVRRSYSSSSGSLMPSLENLDLSQVAAISNDLKSIRTQEKAQLQDLNDRFASFIERVHELEQQNKVLEAELLVLRQKHSEPSRFRALYEQEIRDLRLAAEDATNEKQALQGEREGLEETLRNLQARYEEEVLSREDAEGRLMEARKGADEAALARAELEKRIDSLMDEIAFLKKVHEEEIAELQAQIQYAQISVEMDVSSKPDLSAALKDIRAQYEKLAAKNMQNAEEWFKSRFTVLTESAAKNTDAVRAAKDEVSESRRLLKAKTLEIEACRGMNEALEKQLQELEDKQNADISAMQDTINKLENELRSTKSEMARYLKEYQDLLNVKMALDIEIAAYRKLLEGEETRLSFTSVGSITSGYSQSSQVFGRSAYSGLQSSSYLMSARSFPAYYTSHVQEEQTEVEETIEATKAEEAKDEPPSEGEAEEEEKEKEEGEEEEGAEEEEAAKDESEDTKEEEEGGEGEEEDTKESEEEEKKEESAGEEQVAKKKD
modifications: native post-translational phosphorylation (varying levels, sites not given); N-terminal carbamoylation observed from the urea conditions
B1: the binding result is reported as “binds”.
